Publication PMC3462190, “A Peptidic Unconjugated GRP78/BiP Ligand Modulates the Unfolded Protein Response and Induces Prostate Cancer Cell Death” (PLoS ONE, 2012)

Test system: unfolded protein response in 22Rv.1 cells
Experiment: UPR modulation, Western blot / PCR in 22Rv.1 cells
Assay type: cell-based
Procedure: Unless otherwise stated, stable transfection was carried out in 22Rv.1 or BPH-1 cells with 10 µg of plasmid DNA using FuGene 6™ (Roche Diagnostics Mannheim, Germany) Stably transfected 22Rv.1 cells were selected with 0.8 mg/ml while BPH-1 cell clones were selected with 1.2 mg/ml G418. LNCaP, PC3, DU145, PNT-2 and RWPE-1 cell clones were selected with 1 mg/ml G418. Specific downregulation of GRP78 expression was achieved by transfecting siRNA-duplexes (GRP78∶5′-[…]-3′) twice in 72 h using HiPerfect™ (Qiagen Hilden, Germany). siRNA against GFP (5′-[…]-3′) was used as a control. Western blot analysis was performed as previously described.
Figure 3 The Bag-1 peptide modulates the UPR and sensitizes 22Rv.1 cells to ER-stress. A. UPR modulation upon Bag-1 peptide overexpression. Pooled clones of 22Rv.1 cells transfected with pcDNA3.1-HA-Bag-1 68 amino acid peptide or an empty expression vector were treated with 300 nM thapsigargin (TG) for the indicated time points. Cells were lysed and subjected to Western blot analysis using the indicated antibodies or phospho-specific antibodies. B. The Bag-1 peptide sensitizes 22Rv.1 cells to ER-stress induced apoptosis. Pooled clones of 22Rv.1 transfected with the Bag-1 peptide or the empty expression vector were treated with thapsigargin (TG) or glucose-starved (GS) for 24 h. The cells were lysed and subjected to Western blot analysis using anti-PARP and caspase 4 specific antibodies. Anti-HA antibody was used to detect the HA-Bag-1 peptide. […] C. […] Pooled clones of 22Rv.1 expressing HA-tagged Bag-1 peptide or an empty expression vector were transfected with GRP78/BiP siRNA or control GFP siRNA. The cells were lysed and Western blot was carried out with anti-PARP, anti-GRP78 and anti-HA antibodies. β-actin antibody was used to determine the level of protein loaded on the gel.
A. Real time PCR analysis of ATF6 gene expression following thapsigargin (300 nM) treatment for the indicated time points in 22Rv.1 cell clones with empty vector control (open bars) and peptide-expressing clones (filled bars). The RNA was extracted using PeqGold RNA pure (PeqLab, Germany) kit according to manufacturer’s instructions. For gene expression analysis, the following primers were used: Rib36 forward 5′-[…]-3′; reverse 5′-CCGGATATGAGGCAGCAG-3′; ATF6 forward 5′-[…]-3′; reverse 5′-[…]-3′. Each bar represents the mean of three independent experiments ± SEM. *p<0.05. B. Western blot analysis of ATF6 and its cleaved product (cATF6) in LNCaP cells stably expressing the empty vector control or the Bag-1 peptide. Anti-ATF6 specific antibody and an anti-HA specific antibody were used for the Western blot. β-actin antibody was used to determine equal loading control. Mouse monoclonal anti-ATF6 antibody was purchased from Imgenex (Hamburg, Germany), mouse monoclonal anti-HA antibody (HA.11 clone 16B12) was purchased from Covance (Munich, Germany) and anti-β-actin antibody was purchased from Abcam (Cambridge, UK). (TIF) Click here for additional data file.
Supplementary file pone.0045690.s004.tif: Figure S4 The Bag-1 peptide induces GCN2 phosphorylation. 22Rv.1 cells stably expressing the empty vector control or the Bag-1 peptide were treated with thapsigargin (300 nM) for 16 h and subjected to Western blot analysis using anti-phospho-GCN2, GCN2 and HA-specific antibodies. The filters used in this experiment for the GCN2 signals are the same filters used in Figure 3A. The HA-Bag-1 peptide and the β-actin signals are therefore identical to that of Figure 3A. (TIF) Click here for additional data file.

[1] = Bag-1 peptide expressing 22Rv.1 cells, thapsigargin 300 nM, 16 h
[2] = stable Bag-1 peptide expression, 22Rv.1, thapsigargin 300 nM
[3] = stable Bag-1 peptide expression, 22Rv.1, thapsigargin 300 nM, vs vector control

B1: Bag-1 peptide: internal sequence of 68 amino acids of Bag-1 (Bag1-L 202–269), HA-tagged, expressed from pcDNA3 (peptide)
chain: TPLSALGIQDGCRVMLIGKKNSPQEEVELKKLKHLEKSVEKIADQLEELNKELTGIQQGFLPKDLQAE
modifications: also: HA tag, end not given here
CHOP expression (Bag-1 peptide expressing 22Rv.1 cells, thapsigargin 300 nM): increased expression of the pro-apoptotic factor CHOP | GCN2 [1]: upregulated in the peptide expressing cells | GCN2 phosphorylation [1]: enhanced phosphorylation of GCN2 | ATF4 activation [2]: activation of the downstream target ATF4 | eIF2α phosphorylation [2]: increase in eIF2α phosphorylation | thapsigargin-induced expression of GRP78/BiP [2]: inhibition of the thapsigargin-induced expression of GRP78/BiP | cleaved ATF6 [3]: significant reduction of cleaved ATF6 | phosphorylation of PERK and IRE1 [3]: reduced ER stress-induced phosphorylation of PERK and IRE1
